Reference: patent US20090239765A1, “GENES WHOSE EXPRESSION IS INCREASED IN RESPONSE TO STIMULATION BY CORTICOTROPIN-RELEASING HORMONE” (priority 2003, published 2009)
Blank lines part the entries; values can stand above or below the compound they belong to.

Key:
[1] = biological target: T1, CRH-R1 (Mus musculus, UniProt P35347); assay: c-fos mRNA levels by quantitative RT-PCR in AtT-20 cells; format: cell-based, murine
T1 construct: host or cells: AtT-20 (murine pituitary corticotroph adenoma cells)
T1 sequence (P35347 24-415): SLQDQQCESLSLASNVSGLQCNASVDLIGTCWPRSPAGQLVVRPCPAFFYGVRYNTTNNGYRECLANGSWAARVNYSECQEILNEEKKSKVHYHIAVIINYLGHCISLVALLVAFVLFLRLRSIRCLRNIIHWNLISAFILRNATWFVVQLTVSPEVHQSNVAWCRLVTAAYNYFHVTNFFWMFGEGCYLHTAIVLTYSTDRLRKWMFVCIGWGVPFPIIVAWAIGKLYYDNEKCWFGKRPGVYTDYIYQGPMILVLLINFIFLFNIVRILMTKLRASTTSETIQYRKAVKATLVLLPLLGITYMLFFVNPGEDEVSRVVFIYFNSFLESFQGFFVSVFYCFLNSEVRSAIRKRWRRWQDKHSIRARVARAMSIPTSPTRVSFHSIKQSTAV
Protocol: Cell culture and sample preparation—AtT-20 cells were purchased from ATCC and were maintained at 37° C. in 5% CO2 in humidified air in Dulbecco's modified Eagle's medium (Invitrogen Life Technologies) containing 10% fetal bovine serum, 50% horse serum and 4.5 g/L D-glucose. For experiments cells were seeded in 25 cm^2 flasks. The medium was replaced 48 h later and cells were treated with either 0.1% DMSO, 1 μM CRH (Sigma) in DMSO, 1 μM R121919 in DMSO or 1 μM CRH+1 μM R121919 in DMSO for 0, 0.5, 1, 2, 4, 8 and 24 h in fresh medium. The incubation was stopped by aspirating the incubation medium and adding 3 ml Trizol (Invitrogen Life Technologies) for lysis of the cells. Total RNA was extracted using Trizol according to the instructions of the manufacturer. […]
Quantitative RT-PCR—Microarray data were confirmed using real time PCR analysis. […] Quantitative PCR was performed on a ABIPrism 7700 cycler (Applied Biosystems) using a Taqman PCR kit. […] A linear regression line calculated from the standard curves allowed the determination of transcript levels in RNA samples from the different time points.
Transcriptional response to CRH was studied in the CRH-R1-expressing murine AtT-pituitary corticotroph-derived adenoma cell line. Whereas CRH-R1 was readily detectable both by real time quantitative RT-PCR (RTq) and western blot, CRH-R2 expression could not be discerned in AtT-20 cells. […]

[2] = biological target: T1, CRH-R1; assay: Microarray transcriptional response to CRH in AtT-20 cells (Murine Genome U74Av2 arrays); format: cell-based
Protocol: (§1) Cell culture and sample preparation—AtT-20 cells were purchased from ATCC and were maintained at 37° C. in 5% CO2 in humidified air in Dulbecco's modified Eagle's medium (Invitrogen Life Technologies) containing 10% fetal bovine serum, 50% horse serum and 4.5 g/L D-glucose. For experiments cells were seeded in 25 cm^2 flasks. The medium was replaced 48 h later and cells were treated with either 0.1% DMSO, 1 μM CRH (Sigma) in DMSO, 1 μM R121919 in DMSO or 1 μM CRH+1 μM R121919 in DMSO for 0, 0.5, 1, 2, 4, 8 and 24 h in fresh medium. The incubation was stopped by aspirating the incubation medium and adding 3 ml Trizol (Invitrogen Life Technologies) for lysis of the cells. Total RNA was extracted using Trizol according to the instructions of the manufacturer. 100 μg total RNA was further purificied using Rneasy kit (Qiagen) with DNAseI treatment on column.
Microarray hybridization—cRNA was prepared as follows. Reverse transcription was performed on 10 μg of total RNA for 1 h at 42° C. using a T7-oligo(dT)24-primer and SuperscriptII RT (Invitrogen Life Technologies). Second strand cDNA synthesis was done for 2 h at 16° C. using Escherichia coli DNA Polymerase I, DNA ligase and RNAseH (Invitrogen Life Technologies). After phenol-chloroform extraction using phase-lock gel (Eppendorf) in vitro transcription was performed for 6 h at 37° C. using the Bioarray high-yield RNA transcript labeling kit with Biotin labeled ribonucleotides (Enzo Diagnostics). cRNA samples were purified on Qiagen Rneasy columns followed by fragmentation for 35 min at 95° C. cRNA yields were between 50 and 100 μg. Samples were processed on GeneChips (Affymetrix, Santa Clara, Calif.). In order to check the quality of each sample, 5 μg of labeled cRNA was run on Test2-arrays. Actual experiments were performed on Murine Genome U74Av2 arrays, containing probe sets interrogating approximately 12,000 full-length mouse genes and EST clusters from the UniGene database (Build 74). Hybridization was performed using 15 μg CRNA for 16 h at 45° C. under continuous rotation. Arrays were stained in Affymetrix Fluidics stations using Streptavidin/Phycoerythrin (SAPE) followed by staining with anti-streptavidin antibody and a second SAPE staining. Subsequently arrays were scanned with a HP-Laserscanner and data were analyzed with the Microarray Suite Software (Affymetrix). No scaling or normalization was performed at this stage. Quality of the experiment was assessed based on the percentages present calls across all samples which was on average 47.06±2.45%. The cytoplasmic β-actin and GAPDH 5′/3′ ratios were 1.10±0.08 and 0.93±0.05 respectively.
Basically this alignment sets the average intensity of one array to the average measured across all arrays, compensating for array to array variations in hybridization, washing and staining, ultimately allowing a reasonable comparison between arrays. After alignment polished data were analyzed using weighted spectral mapping. Weighted spectral mapping is an unsupervised multivariate analysis method which includes double-centering of the data combined with a specialized visualization representing the two highest principle components. Even though double-centering removes the “size” component of the array data, this information is reintroduced in the visualization via the area of the symbols representing the size of the respective samples and genes. This method allows the reduction of a large microarray dataset and provides means to visually inspect and thereby identify clusters of genes and/or subjects in the data (7). A more detailed analysis was carried out using the OmniViz program. All records which were absent in all experiments were removed and all signals less than 20 were set to 20. Gene expression fold differences for CRH, R121919 and CRH+R121919 treatments were calculated at each timepoint. For those calculations signals at corresponding timepoints in DMSO treated samples were used to calculate ratios. […]

[3] = test system: CRF1 mRNA; assay: CRF1 mRNA in AtT-20 cells exposed to CRF; format: cell-based, murine; details: AtT-20 cells exposed to 1 μM CRF
Protocol: as §1
Quantitative RT-PCR—Microarray data were confirmed using real time PCR analysis. First strand cDNA synthesis was performed on 0.5 μg total RNA using random hexamer primers and SuperscriptII RT (Invitrogen Life Technologies). Quantitative PCR was performed on a ABIPrism 7700 cycler (Applied Biosystems) using a Taqman PCR kit. […] A linear regression line calculated from the standard curves allowed the determination of transcript levels in RNA samples from the different time points.

[4] = biological target: corticotropin-releasing hormone receptor 1 (CRH-R1), endogenous on murine AtT-20 cells (murine) (UniProt P35347); assay: cell-based or functional assay

- c-fos transcription (c-fos mRNA levels by RTq) ([1]; 1 μM CRH, levels already going down after 0.5 to 1 h): transient surge
- number of regulated genes (greater than 2-fold change in transcript levels at any one time point, relative to DMSO, differing from antagonist treatment) ([2]; 1 μM CRH, 0.5 to 24 h): 111 genes
- number of intermediate responders (responding after 1 to 2 hours of treatment) ([2]; 1 μM CRH, 1 to 2 hours): 32 genes
- number of early responders (2-fold change after 30 minutes treatment) ([2]; 1 μM CRH, 30 minutes): 26 genes
- number of late responders (response after 2 hours or more) ([2]; 1 μM CRH, 2 hours or more): 53 genes
- direction of regulation of all responder genes ([2]; after exposure to CRH): up regulated
Compound: CRH: Corticotropin releasing hormone, a 41-amino acid polypeptide (Sigma)
- alterations in CRF1 mRNA [3]: not detect any alterations

- microarray gene expression in AtT-20 cells (greater than 2-fold change in transcript levels against DMSO) [4]: 111 genes
Compound: corticotropin-releasing hormone (CRH) (ligand)

- suppression of CRH-elicited c-fos transcription ([1]; 1 μM CRH in the presence of 1 μM R121919): almost completely suppressed
- suppression of CRH-induced transcriptional responses (microarray) ([2]; 1 μM CRH + 1 μM R121919): suppressed
Compound: CCCN(CCC)c1cc(C)nc2c(-c3cnc(N(C)C)cc3C)c(C)nn12 [R121919]
